One molecule from patent publication US20130101592A1 (LYKERA BIOMED, published 2013) can be followed below.

Test [1] concerns the target recombinant human S100A2 (Abnova) (human, UniProt P29034 1-98). Kind of test: ELISA on purified protein; legend: - no reaction.
Test [2] concerns the target recombinant human S100A6 (Abnova) (human, UniProt P06703 1-90). Kind of test: ELISA on purified protein; legend: - no reaction. On the technique in general: In an ELISA, binding on a coated surface is turned into a signal by an enzyme label.
The target of a further test is T1, recombinant human S100A7 (human, UniProt P31151 1-101).
T1 sequence (looked up): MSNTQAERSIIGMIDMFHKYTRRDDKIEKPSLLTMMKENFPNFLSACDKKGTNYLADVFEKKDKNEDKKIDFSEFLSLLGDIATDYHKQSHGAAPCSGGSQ
Kind of test: ELISA on purified protein; legend: - no reaction.

Test [3] concerns the target T2, recombinant human S100A1 (Abnova) (human, UniProt P23297 1-94).
T2 sequence (looked up): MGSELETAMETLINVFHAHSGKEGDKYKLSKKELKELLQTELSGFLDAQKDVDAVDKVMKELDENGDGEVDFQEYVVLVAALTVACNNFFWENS
Kind of test: ELISA on purified protein; legend: - no reaction.

In test [4] the target is T3, recombinant murine S100A4 (murine, UniProt P07091 1-101).
T3 construct: also called Mouse S100A4
Kind of test: ELISA on purified protein; legend: ++++ positive reaction.

Sequence of recombinant human S100A2 (Abnova) (P29034 whole entry, one chain of several): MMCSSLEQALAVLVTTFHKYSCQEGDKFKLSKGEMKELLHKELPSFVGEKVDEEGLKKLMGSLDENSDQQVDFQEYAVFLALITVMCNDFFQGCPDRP
T3 sequence (P07091 whole entry, one chain of several): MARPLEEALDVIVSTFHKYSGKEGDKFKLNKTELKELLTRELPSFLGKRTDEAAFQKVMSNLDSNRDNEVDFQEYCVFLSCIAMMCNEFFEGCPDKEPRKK

B1: monoclonal antibody 5C3 (hybridoma 5C3-1B8-1F4, ECACC 10022401) (antibody, IgG1, V domains shown)
VH: EAQLQQSGAELVKPGASVKLSCTASGFNIQETYMHWVKQRPEQGLEWIGRIDPANGNTKDDPKFQGKASITVDTSSNTAYLQLSSLTSEDTAVYYCASSYAMDYWGQGTSVTVSS
VL: DVLMTQTPLSLPVSLGDQASISCRSSQSIVHSNGNTYLEWYLQKTGQSPELLIYKVSNRLSGVPDRFSGSGSGTDFTLKISRVEAEDLGVYYCFQGSHVPFTFGSGTKLEIK
notes: constant regions are not; also called monoclonal mouse anti-human S100A4 5C3
Turning to B1, the binding result in test [1] is recorded as “no binding”; in test [2] it was “no binding”; in the test with recombinant human S100A7, “no binding”; in test [3], “no binding”; in test [4] it was “binds”.
